Where “and” joins values, the source holds several entries; their conditions need not be identical. Identical values can stand only once. Like-named read-outs stand apart in the source and are kept apart here.
T1: 27mer cyno CD3 polypeptide conjugated to biotin (cynomolgus monkey)
T1 sequence (peptide, biotin conjugated (site not stated)): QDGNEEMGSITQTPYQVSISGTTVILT


What was measured:
[1] = target: T1, 27mer cyno CD3 polypeptide conjugated to biotin (cynomolgus monkey); test: BIAcore T200 SPR; biotinylated 27mer CD3 peptide on SA chip; TDB flowed at 37 C
[2] = target: T1, 27mer cyno CD3 polypeptide conjugated to biotin (cynomolgus monkey); test: as above; remark: listed apart in the source
[3] = target: cynomolgus monkey LY6G6D-Fc (cynomolgus monkey); test: BIAcore SPR; LY6G6D-Fc immobilized; TDB flowed at 37 C
[4] = target: cynomolgus monkey LY6G6D-Fc (cynomolgus monkey); test: as above; remark: listed apart in the source
[5] = target: cynomolgus monkey LY6G6D-Fc (cynomolgus monkey); test: BIAcore SPR; two-cell TDB with 38E4.v1 arm

Binder	Kd [1]	koff [1]	kon [1]	Kd [2]	Kd [3]	koff [3]	kon [3]	Kd [4]	koff [4]	kon [4]	Kd [5]
LY6G6D TDB assembled using a one-cell system, anti-LY6G6D 20A12.QNTv12 arm (one-cell) and anti-CD3 38E4v1 (WT) arm (bispecific antibody, V domains shown) VH 1: EVQLLESGGGLVQPGGSLRLSCAASGFDFVNNAMIWVREAPGKGLEWVSALSFADNTAYYATWASGRFTISRDSSKTTVYLQMNSLRAEDTAVYYCMRGDLWGPGTLVTVSS VL 1: DIQMTQSPSTLSASVGDRVTITCQASESITRYLNWYQKKPGKAPKLLIYDASKLPSGVPSRFSGSGSGTEFTLTISSLQPDDFATYYCQSTSFRGRSYQNTFGGGTKVEIK VH 2: EVQLVQSGAEVKKPGASVKVSCKASGFTFTSYYIHWVRKAPGQGLEWIGWIYPENDNTKYNEKFKDRVTITADTSTSTAYLELSSLRSEDTAVYYCARDGYSRYYFDYWGQGTLVTVSS VL 2: DIVMTQSPDSLAVSLGERATINCKSSQSLLNSRTRKNYLAWYQEKPGQSPKLLIYWTSTRKSGVPDRFSGSGSGTDFTLTISSLQAEDVAVYYCKQSFILRTFGQGTKVEIK	15.4 nM and 16.5 nM	0.0399 s⁻¹ and 0.0437 s⁻¹	2.6e+06 M⁻¹ s⁻¹ and 2.65e+06 M⁻¹ s⁻¹	15.9 nM							
LY6G6D TDB assembled using a one-cell system, anti-LY6G6D 20A12.QNTv12 arm (one-cell) and anti-CD3 38E4.v1 MD1 arm (bispecific antibody, V domains shown) VH 1: EVQLLESGGGLVQPGGSLRLSCAASGFDFVNNAMIWVREAPGKGLEWVSALSFADNTAYYATWASGRFTISRDSSKTTVYLQMNSLRAEDTAVYYCMRGDLWGPGTLVTVSS VL 1: DIQMTQSPSTLSASVGDRVTITCQASESITRYLNWYQKKPGKAPKLLIYDASKLPSGVPSRFSGSGSGTEFTLTISSLQPDDFATYYCQSTSFRGRSYQNTFGGGTKVEIK VH 2: EVQLVQSGAEVKKPGASVKVSCKASGFTFTSYYIHWVRKAPGQGLEWIGWIYPENDNTKYNEKFKDRVTITADTSTSTAYLELSSLRSEDTAVYYCARDGYSRYYFDYWGQGTLVTVSS VL 2: DIVMTQSPDSLAVSLGERATINCKSSQSLLNSRTRKNYLAWYQEKPGQPPKLLIYWASTRESGVPDRFSGSGSGTDFTLTISSLQAEDVAVYYCTQSFILRTFGQGTKVEIK	26.6 nM and 25.6 nM	0.0383 s⁻¹ and 0.0376 s⁻¹	1.44e+06 M⁻¹ s⁻¹ and 1.47e+06 M⁻¹ s⁻¹	26.1 nM	3.63 nM	0.000512 s⁻¹	141000 M⁻¹ s⁻¹				
LY6G6D TDB assembled using a one-cell system, anti-LY6G6D 20A12.QNTv12 arm (one-cell) and anti-CD3 38E4.v1 MD4 arm (bispecific antibody, V domains shown) VH 1: EVQLLESGGGLVQPGGSLRLSCAASGFDFVNNAMIWVREAPGKGLEWVSALSFADNTAYYATWASGRFTISRDSSKTTVYLQMNSLRAEDTAVYYCMRGDLWGPGTLVTVSS VL 1: DIQMTQSPSTLSASVGDRVTITCQASESITRYLNWYQKKPGKAPKLLIYDASKLPSGVPSRFSGSGSGTEFTLTISSLQPDDFATYYCQSTSFRGRSYQNTFGGGTKVEIK VH 2: EVQLVQSGAEVKKPGASVKVSCKASGFTFTSYYIHWVRKAPGQGLEWIGWIYPENDNTKYNEKFKDRVTITADTSTSTAYLELSSLRSEDTAVYYCARDGYSRYYFDYWGQGTLVTVSS VL 2: DIVMTQSPDSLAVSLGERATINCKSSQSLLNSRTRKNYLAWYQEKPGQPPKLLIYWASTRKSGVPDRFSGSGSGTDFTLTISSLQAEDVAVYYCKQSFILRTFGQGTKVEIK	14 nM and 14.7 nM	0.0433 s⁻¹ and 0.0426 s⁻¹	3.09e+06 M⁻¹ s⁻¹ and 2.89e+06 M⁻¹ s⁻¹	14.4 nM	2.62 nM	0.000574 s⁻¹	219000 M⁻¹ s⁻¹				
LY6G6D TDB comprising the anti-LY6G6D 20A12.QNTv12 arm (two-cell) and the anti-CD3 38E4.v1 arm (bispecific antibody, V domains shown) VH 1: EVQLLESGGGLVQPGGSLRLSCAASGFDFVNNAMIWVRQAPGKGLEWVSALSFADNTAYYATWASGRFTISRDSSKTTVYLQMNSLRAEDTAVYYCMRGDLWGPGTLVTVSS VL 1: DIQMTQSPSTLSASVGDRVTITCQASESITRYLNWYQQKPGKAPKLLIYDASKLPSGVPSRFSGSGSGTEFTLTISSLQPDDFATYYCQSTSFRGRSYQNTFGGGTKVEIK VH 2: EVQLVQSGAEVKKPGASVKVSCKASGFTFTSYYIHWVRQAPGQGLEWIGWIYPENDNTKYNEKFKDRVTITADTSTSTAYLELSSLRSEDTAVYYCARDGYSRYYFDYWGQGTLVTVSS VL 2: DIVMTQSPDSLAVSLGERATINCKSSQSLLNSRTRKNYLAWYQQKPGQSPKLLIYWTSTRKSGVPDRFSGSGSGTDFTLTISSLQAEDVAVYYCKQSFILRTFGQGTKVEIK	13 nM and 16.5 nM	0.0337 s⁻¹ and 0.0364 s⁻¹	2.6e+06 M⁻¹ s⁻¹ and 2.21e+06 M⁻¹ s⁻¹	14.8 nM	1.92 nM	0.000444 s⁻¹	231000 M⁻¹ s⁻¹	2.29 nM	0.00038 s⁻¹	166000 M⁻¹ s⁻¹	2.29 nM

From patent US20240190966A1
